The subject of this series is Bacillus subtilis DB104 (SP-AmyQ fusion secretion). The series can be described thus: AmyQ secretion efficiency, weighted average sort bin (1 = best secretion, 10 = worst) (bin number (weighted average, 1-10)); higher = lower secretion efficiency. In short, it runs like this: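 Occupied alginate beads were sorted by large-particle flow cytometry into 10 equally populated bins according to green/red fluorescence ratio. Each bead (~65 nL) held fluorescein-starch and about 0.3 cells of a B. subtilis DB104 library expressing mature AmyQ fused to designed signal peptides from the amyE locus, and beads were grown about 13 h at room temperature and stained with nile red before sorting. Bin amplicons were Illumina-sequenced, and the secretion score is the read-frequency-weighted average bin number, normalised to beads per bin, excluding low-abundance sequences.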

Values joined by “and” are separate entries in the source; they are usually repeats but may differ in a detail not shown here. Equal values may be shown once.

MKKLILAGIALFVFISPLKSHKT: the AmyQ secretion efficiency was 5.8. Next, MFNRLFRVCFLAALIMAFTLPNSVYHQKP: 6.83; MILITINIITMFIAAAVISLTGTAEAAEK: 4.83.

With MKKLIMALVILGALKKRKKKISADSS, the AmyQ secretion efficiency was found to be 8.07.

MRPVFPLILSAVLFLSCFDDDDDTEASASKR yielded an AmyQ secretion efficiency of 4.17. In turn, MKKGIIRFLLVSFVLFFALSTGITGVQRAPA returned an AmyQ secretion efficiency of 4.88.

Turning to MKRITINIITMFIAAAVIKRRRRKKAEAAEK, the AmyQ secretion efficiency turned out to be 6.55. As to MKRRLSTLLIGIMLLTFAPSAFAKQD, the AmyQ secretion efficiency was determined as 1.82. In turn, MKNMSCKLVVSVTLFFSFLDSTPGAHAQNS showed an AmyQ secretion efficiency of 1.96. With MKLSVKIAGVLTVAAAAMKATAKGN, the AmyQ secretion efficiency came out at 7.76. The sequence MKSKWMSGLLLVAVGFSFTQVMDHAGET had an AmyQ secretion efficiency of 6.14.

For MKRKQQKSLAISALSLGLLVSAPTASFAAES, the AmyQ secretion efficiency amounted to 3.07. In turn, MKRVLTGSVLSLGLLVSASPAFATSP yielded an AmyQ secretion efficiency of 1.56. The sequence MNLRKILLSSALSLGMLVSAAPVLYTSS yielded an AmyQ secretion efficiency of 7.31.

MKRLLVSLRVWMVFLMNWVTPDRKTYAAAVY: the AmyQ secretion efficiency is 6.89. As for MSRITINIITMFIAAAVISLTGTAEAAEK, the figure is 2.45.

With MPYLKRVLLLLVTGLFMSLFAVTATESAQTG, the AmyQ secretion efficiency stood at 4.4. On to MNKKYFVLIVCIIFTSALFPTDKKVTAAQG, for which the AmyQ secretion efficiency is 1.1. Turning to MNFKKTVVSALSISALALKKRGVASAHEI, the AmyQ secretion efficiency turned out to be 6.98. Turning to MKKVMLATALFLGLTPAGANAASK, the AmyQ secretion efficiency was 2.96. Sequence MLKKIARRKCKKRVGSLLFFTAPASAHVS yielded an AmyQ secretion efficiency of 7.33.

Sequence MTKLKMLSMLTVMIASLFIFSKKRRRKALAVQY yielded an AmyQ secretion efficiency of 7.47.

MKNMSCKLVVSVTLFFSFLTIGPLAHSQNS yielded an AmyQ secretion efficiency of 2.01.

As to MKRITIIITMFIAAAVISLTGTAEAAEK, the AmyQ secretion efficiency amounted to 2.84. Regarding MKKRFSLIMMTGLLFGLTKRKKKKAFAAEK, the AmyQ secretion efficiency was determined as 7.34.

In the case of MRKYTVIASILLSFLSVLASTVFVSKAFPV, the AmyQ secretion efficiency worked out at 8.75. For the sequence MKLAKRVSALTPSTTLAITAKVKEL, the AmyQ secretion efficiency came to 6.33. On to MKSKGSIMACLILFSFTITTFINTETGSAFSN, for which the AmyQ secretion efficiency stood at 5.58. In turn, MKKAFLVFLSVVLVTTVFLTSSFLVKQQESVAQAKQL showed an AmyQ secretion efficiency of 4.08. MKVKRKRLLLLLFAFEPSASGKKL gave an AmyQ secretion efficiency of 7.56. MKTLRTLCVLMILSGVIFFGLKYDAKDI had an AmyQ secretion efficiency of 5.31. Take MKKKQVMLALTAAAGLHSAPAAKAAPL: the AmyQ secretion efficiency amounted to 3.17. Regarding MKSKGSIMACLILFSFTITTFINTETISVFSN, the AmyQ secretion efficiency amounted to 7.71.

MRKTIFAFLTGLMMFGTITAASKSPD yielded an AmyQ secretion efficiency of 6.

As for MSRIRIPMTLALGAALTIAPLSFASAEEN, the AmyQ secretion efficiency turned out to be 3.2. Regarding MKKTIMSFVAVAALSTTAFGAHASSKEI, the AmyQ secretion efficiency is 3.17. The sequence MLTFLWMVGLLAGCLAAGGFSYNAFATEN registered an AmyQ secretion efficiency of 7.84. MMKKGRSRQQLTATVLFGTCAVDVPGIISPKTAEAASQ returned an AmyQ secretion efficiency of 7.68.

Regarding MIAYFGKCLLLVTIMFLGVLFGMQQGNHG, the AmyQ secretion efficiency came to 5.32.

As for MLCVMMLLFSAIASFPVSSQAKDQ, the AmyQ secretion efficiency stood at 5.36. As to MNKFLKSNFRFLLAAALGISLLASSNFCKASND, the AmyQ secretion efficiency turned out to be 1.73.

Sequence MRKKLKWLSFLLGFIILLFLFKYQSSNNDS showed an AmyQ secretion efficiency of 6.36. As for MRSKKLWISLLFALTLIFVMAFGNMTAQAAGK, the figure is 1.9; as for MFMKHTISLLIIFLLASAVLAKPIEAHTV, 2.89; as for MKQIMIFLTSFMLLAMTGQTCLAKDV, 3.75. With MSTSTSSSLISSTVLSTVVISSLLFPGAAGASSK, the AmyQ secretion efficiency was 2.7. In turn, MKRLFMKASLVLFAVVFVFAVKGADAKAETH yielded an AmyQ secretion efficiency of 2.52. For MRPVFPLILSAVLFLSCFFGARQTEASMSKR, the AmyQ secretion efficiency was 2.44.

Turning to MKRFLIGAGVAASGWFIADHQTHSQEM, the AmyQ secretion efficiency stood at 6.73. In turn, MKKRITYSLLALLAVVAFAFTDSSKSKAAEA yielded an AmyQ secretion efficiency of 3.09. Sequence MKKGIIRFLLVSFVLFFALSTGITGVQHAPA had an AmyQ secretion efficiency of 5.62. On to MKKQSYSATTAVVLGSTLFAGAASAQSI, for which the AmyQ secretion efficiency was 5.86. For the sequence MKKWIYVVLVLSIAGIGGFSSHAASS, the AmyQ secretion efficiency was determined as 6.17.

As for MRSYIKVLTMCFLGLILFVPTQTALADNS, the AmyQ secretion efficiency amounted to 2.3. Sequence MKKKLAAGLTASAIVGTTLVVTPWEAATI returned an AmyQ secretion efficiency of 6.58. MRPLILSAVLFLSCFFGARQTEASASKR came in with an AmyQ secretion efficiency of 3.63. In turn, MKQCQKSRKRRRQFLVSLIIGTFVISVPFMANAQSD gave an AmyQ secretion efficiency of 1.71. As for MKKLLAAGIIGLLTVFIAVPSFAAEK, the AmyQ secretion efficiency is 2.33.

As for MRKNRRGKQGTLSLGLLSFMVTPVSAASK, the AmyQ secretion efficiency was determined as 7.32.

Sequence MKKQIITATTAVVLGSTLFAGAASAQSD yielded an AmyQ secretion efficiency of 2.54. On to MKVPKTMLLSTAAGLLLSLRRKKRKVSAHYV, for which the AmyQ secretion efficiency turned out to be 6.33.

MKKVLMAFIICLSLILSVLAAPPSGQKAESV came in with an AmyQ secretion efficiency of 7.08. As for MKRTWNVCLTALLSVLLVAGSVTFHAEAKKP, the figure is 2.82; as for MTIFLMAVFVIMISFLIATVNVNTAHAAID, 6.34; as for MKKTIMSTYGVAALSTTAFGAHASAKEI, 8.21. The sequence MKMKSGMEQAVSVLLLLSRLPVQASITSE gave an AmyQ secretion efficiency of 7.01. MKKTIMSQKQTAALSTTAFGAHASAKEI displayed an AmyQ secretion efficiency of 7.42.

Consider MKKRLIGFLVLVPALIMSGITLIEDNKK, for which the AmyQ secretion efficiency is 7.79.

MKTLRTLCVLMILSGVIFFGLKIDVKDI: the AmyQ secretion efficiency worked out at 6.52. Sequence MKRLLSTLLIGIMLLTFAPSAFAAQD yielded an AmyQ secretion efficiency of 1.6. As for MKRLLSTLLIGIMLLPKAPSAFAKQD, the figure is 2.61; as for MKKWLKRKKSLAIAIVLFMYTKGEAKAAGM, 7.31; as for MNKFLKSNFRFLLAAALGISLLASSNFIKASND, 4.18 and 4.22 and 2.8.

Sequence MPYLKRVLLLLVTGLFMSLFAVTATSSAQTG registered an AmyQ secretion efficiency of 1.26. In the case of MLKKVILAAFILVGSTLGAFSFSSDASAARK, the AmyQ secretion efficiency came to 2.12. The sequence MKKKQVMLALTAAAGLGLTALKHKKKKAKAAPL came in with an AmyQ secretion efficiency of 6.6. MFKKQSRATSALTFSLSLVLPLDGHAKAQEV yielded an AmyQ secretion efficiency of 6.63. Regarding MKKKLAAGLTASAIVGTTLVVTPAERATI, the AmyQ secretion efficiency was found to be 5.86. As to MKRITINIITMFIAAAVIFLVVFTSSGTAEAAEK, the AmyQ secretion efficiency is 2.77.

MKVLLSALLLLLFAFEPSFSGKKL registered an AmyQ secretion efficiency of 8.07. Sequence MIKGIIRFLLVSFVLFFALSTGITGVQAAPA gave an AmyQ secretion efficiency of 2.2. MKLWMRKTLVVLFTIVTFGLVVPPAALMADKP yielded an AmyQ secretion efficiency of 2.83. As to MRKKRRRVITCVMAASLTLGSLLPAGYATAKED, the AmyQ secretion efficiency came out at 3.9. In turn, MKQGKFSSFLILLLMLTLVVAPKEKAEAASS registered an AmyQ secretion efficiency of 2.33. MKKRFSLKKRRGLLFGLTSPAFAAEK: the AmyQ secretion efficiency amounted to 8.62. Turning to MAAQTDYKKQVVGILLSLAFVLFVFSRSERHE, the AmyQ secretion efficiency is 4.39.

MSTGTSGSLISSLIVLSTVVISSLLFPGAAGASSK had an AmyQ secretion efficiency of 2.34. As for MRIFKKAVFVIMISFLIATVNVNTAHAAIG, the figure is 1.03; as for MNSCSQLIVCSLAAILLLIPSVSFAADS, 4.9. For the sequence MKRMIRTLPLLIVCLAFSSFSASARAASE, the AmyQ secretion efficiency was found to be 2.17. The sequence MKKAFILSAAAAVGLFTFGGVQQASCKEL showed an AmyQ secretion efficiency of 2.66. Sequence MLKKKWMVGLLAGCLAAGDDEYNAFATEN displayed an AmyQ secretion efficiency of 4.98. Next, MKRILFLLSTLLIGIMLLTFAPSAFAKQD: 1.83. As for MKKRLIAPMLLSAASLAFFAEEESAQAAAY, the AmyQ secretion efficiency stood at 2.27. In turn, MKLAKRVSALTPSTTLAITGKAKEL had an AmyQ secretion efficiency of 7.09. In the case of MLTKRLLTIYIMLLGLIAWFPGAAQAAKK, the AmyQ secretion efficiency was determined as 4.2. Next, MKKRQIAPGLLSAASLAFFAMSGSAQAAAY: 4.58; MKRTWNVCLTALLSVLLVAGSVPFHGEAKKP: 2.79; MKNMSCKLRRRRKRFFSFLTIGPLAHAQNS: 7.37. Turning to MKRTSTAYLLLGILCSAAVFLIGAPSRALGAEV, the AmyQ secretion efficiency came out at 2.85. MKKTIMSFKRKKKKSTTAFGAHASAKEI had an AmyQ secretion efficiency of 6.45.

MTKKAWFLPLVCVLLISGWLAPAASGSAQTT returned an AmyQ secretion efficiency of 2.23. Sequence MKKRFFGPIILAFILFAAIAIPS displayed an AmyQ secretion efficiency of 6.38. Next, MKRIRIPMTLALGAALTIAPLSFGSAEEN: 4.51; MRFTKVVGFLSVLGLAAVFPLTAQGEKA: 2.12; MLKRTSFVSSLFISSAVLLSILLPSGQAHADDD: 4.33. MKKRITYSLLALLAVVAFAFTDSSKTKAAEA registered an AmyQ secretion efficiency of 4. As to MRKKRVITCVMAASLTLGSLLPAGYMSAKED, the AmyQ secretion efficiency was 2.67. MKKKLAAGLTASAIVGTTLVDEPAEAATI returned an AmyQ secretion efficiency of 5.66.

Values taken from the supplement of paper PMC9942255.
